Reference: patent US20160032279

How the values were obtained:
[1] = biological target: T1, C-reactive protein (human), P02741; assay: FACS; conditions: modification not given
T1 chain: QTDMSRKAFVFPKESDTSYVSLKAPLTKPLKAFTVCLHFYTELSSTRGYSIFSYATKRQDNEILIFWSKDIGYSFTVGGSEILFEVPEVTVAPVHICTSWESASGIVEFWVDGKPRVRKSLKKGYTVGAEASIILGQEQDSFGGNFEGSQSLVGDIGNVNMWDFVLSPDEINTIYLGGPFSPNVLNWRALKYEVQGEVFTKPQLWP

[2] = biological target: T1, C-reactive protein (human), P02741; assay: FACS; conditions: modification not given

| Binder | Kd [1] | Kd [2] |
| --- | --- | --- |
| EWACNDRGFNCQLQR [CRP-1] | 1 nM | 1.2 nM |
| FPIYNQRGFITLASP [CRP-2] | – | 3 nM |
| MIFNSRGFLSLMSSG [CRP-6] | – | 8 nM |
| YPPRFQYYRFYYRGP [CRP-10] | – | 5 nM |
